How the values were obtained:
[1] = target: T1, extracellular domain of human Cripto-1, soluble form, with N-terminal His-tag (human, limits assumed); test: screening of a phage-displayed human antibody library
T1 construct: Prepared in soluble form by the method of Alam et al., Int J Mol Sci 2018; also called purified human Cripto-1; CR-1
T1 chain: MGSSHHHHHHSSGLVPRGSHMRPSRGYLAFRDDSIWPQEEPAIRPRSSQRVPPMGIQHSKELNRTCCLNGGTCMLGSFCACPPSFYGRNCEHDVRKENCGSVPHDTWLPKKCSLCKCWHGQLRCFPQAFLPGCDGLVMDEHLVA
Method: The extracellular domain of human Cripto-1 contains the amino acid sequence represented by SEQ ID NO: 11, and has a His-tag sequence having the amino acid sequence represented by SEQ ID NO: 12 at its N-terminus. The extracellular domain of human Cripto-1 was prepared in its soluble form in accordance with the method disclosed in Alam. et. al., Int J Mol Sci. 2018, 26; 19 (11). The antibody library used as a screening target is described in Sakai, K. et al., Biochemistry 46 (1): 253-62, and the subclass of the antibody is IgG.

[2] = target: T2, human Cripto-1 in human cancer tissue (tissue array BCN801) (human, UniProt P13385 31-150, GPI-anchor (thought to be bound to the cell membrane surface by GPI-anchors)); test: immunostaining of a human cancer tissue array, ALEXA568-labeled anti-human IgG secondary antibody
T2 construct: whole, on cells; Endogenous protein detected by immunostaining of pancreas, thyroid, prostate, stomach, cervical, colorectal and breast cancer tissue; also called CR-1
T2 sequence (looked up): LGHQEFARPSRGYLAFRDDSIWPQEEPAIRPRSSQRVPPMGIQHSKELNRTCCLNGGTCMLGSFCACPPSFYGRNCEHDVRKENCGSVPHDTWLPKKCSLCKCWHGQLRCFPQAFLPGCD
Method: Immunostaining was performed on a human cancer tissue array (BCN801, US Biomax Inc.). The #35 clone was used as a primary antibody. ALEXA568-labeled anti-human IgG goat antibody (Invitrogen) was used as a secondary antibody to detect human Cripto-1 in each cancer tissue (pancreas cancer tissue, thyroid gland cancer tissue, prostate cancer tissue, stomach cancer tissue, cervical cancer tissue, colorectal cancer tissue, and breast cancer tissue). These cancer tissues contained cancer stem cells as well as cancer cells, and Cripto-1 was thought to be bound to the surface of the cell membrane of the cancer stem cells by GPI-anchors. In a negative control experiment, the signal background was confirmed by using only the secondary antibody. FIGS. 3 to 5 show the results.

B1: #35 clone antibody (human-derived anti-human Cripto-1 monoclonal antibody) (antibody, V domains shown)
VH: QVQLQQSGPGLVKPSQTLSLTCAISGNSVSSNSAAWNWIRRSPSRGLEWLGRTYYRSKWYNDYAVSVKSRITIKPDTSKNQFSLQLNSVTPEDTAMYYCARGFCSGGRCYSFDYWGPGTLVTVSS
VL: QSVLTQPASVSGSPGQSITISCTGTDSDVGAYGSASWYRHSPGKAPQLIIYDVTNRPSGVSNRFYGSKSGNTASLTISGLQAEDEADYYCQAWDSGIHVVFGGGTQLTVLG
notes: The library subclass is IgG; also called Clone #35
B1: binds [1]; binds [2].
